# According to US10413607B2, “Antibody specifically binding to ErbB3 and use thereof” (ISU ABXIS CO., LTD., priority 2015, dated 2019):
# Target: T1, recombinant human ErbB3 protein (Homo sapiens, UniProt P21860)
# T1 construct: purchased R&D systems
# Test: Binding affinity of anti-ErbB3 antibody to human ErbB3 protein (Octet QK384)
# Settings: immobilized human ErbB3; for ka (association constant): binding phase about 900 seconds; for kd (dissociation constant): dissociation phase about 1200 seconds
# Method: In particular, the binding affinities of the anti-ErbB3 antibodies to the recombinant human ErbB3 protein (R&D systems) and the antigen-antibody interactive dynamics were measured using an Octet® QK384 system (Pall Life Sciences). After activation of carboxyl groups in 20 mM of 1-ethyl-3-(3-dimethylaminopropyl)carbodiimide hydrochloride (EDC) and 40 mM of N-hydroxysulfosuccinimide (sulfo-NHS) solution on an AR2G sensor (ForteBio), 10 μg/mL of human ErbB3 protein solution diluted with 10 mM of sodium acetate (pH 4.0) (ForteBio) was added to immobilize human ErbB3 protein onto the AR2G sensor. The AR2G sensor to which the human ErbB3 protein was immobilized was treated with 1 M of ethanolamine (ForteBio) to inactivate the remaining unreacted carboxyl groups.
Molecule,ka (association constant),kd (dissociation constant)
"472S2: modified anti-ErbB3 antibody from lead antibody 472P (CDR mutagenesis) (antibody, V domains shown, Heavy chain variable region of antibody 472S2; Light chain variable region of antibody 472S2) VH: EVQLLESGGGLVQPGGSLRLSCAASGFTFSWYDLAWVRQAPGKGLEWVSGISYDGGNTYYADSVKGRFTISRDNSKNTLYLQMNSLRAEDTAVYYCARDPSWCLQDLCYYADGMDVWGQGTLVTVSS VL: QSVLTQPPSASGTPGQRVTISCSGSSSNIGSNSVSWYQQLPGTAPKLLIYADSNRPSGVPDRFSGSKSGTSASLAISGLRSEDEADYYCGSWDYSLSGYVFGGGTKLTVLG",1.07e+06 M⁻¹ s⁻¹,<1e-07 s⁻¹
"472S3: modified anti-ErbB3 antibody from lead antibody 472P (CDR mutagenesis) (antibody, V domains shown, Heavy chain variable region of antibody 472S3; Light chain variable region of antibody 472S3) VH: EVQLLESGGGLVQPGGSLRLSCAASGFTFSWYDMSWVRQAPGKGLEWVSGISYDGGNTYYADSVKGRFTISRDNSKNTLYLQMNSLRAEDTAVYYCARDPSWCLQDLCYYADGMDVWGQGTLVTVSS VL: QSVLTQPPSASGTPGQRVTISCSGSSSNIGSNSVSWYQQLPGTAPKLLIYADSNRPSGVPDRFSGSKSGTSASLAISGLRSEDEADYYCGSWDYSLSGYVFGGGTKLTVLG",522000 M⁻¹ s⁻¹,1.43e-07 s⁻¹
"472S4: modified anti-ErbB3 antibody from lead antibody 472P (CDR mutagenesis) (antibody, V domains shown, Heavy chain variable region of antibody 472S4; Light chain variable region of antibody 472S4) VH: EVQLLESGGGLVQPGGSLRLSCAASGFTFSWYDIAWVRQAPGKGLEWVSGISYDGGNTYYADSVKGRFTISRDNSKNTLYLQMNSLRAEDTAVYYCARDPSWCLQDLCYYADGMDVWGQGTLVTVSS VL: QSVLTQPPSASGTPGQRVTISCSGSSSNIGSNSVSWYQQLPGTAPKLLIYADSNRPSGVPDRFSGSKSGTSASLAISGLRSEDEADYYCGSWDYSLSGYVFGGGTKLTVLG",1.15e+06 M⁻¹ s⁻¹,1.09e-05 s⁻¹
"472M1: modified anti-ErbB3 antibody from lead antibody 472P (CDR mutagenesis) (antibody, V domains shown, Heavy chain variable region of antibody 472M1; Light chain variable region of antibody 472M1) VH: EVQLLESGGGLVQPGGSLRLSCAASGFTFSWYDLSWVRQAPGKGLEWVSGISYDGGNTYYADSVKGRFTISRDNSKNTLYLQMNSLRAEDTAVYYCARDPSWCLQDLCYYADGMDVWGQGTLVTVSS VL: QSVLTQPPSASGTPGQRVTISCSGSSSNIGSNSVSWYQQLPGTAPKLLIYADSNRPSGVPDRFSGSKSGTSASLAISGLRSEDEADYYCGSWDYSLSGYVFGGGTKLTVLG",1.39e+06 M⁻¹ s⁻¹,1.74e-05 s⁻¹
"451M1: modified anti-ErbB3 antibody from lead antibody 451P (CDR mutagenesis) (antibody, V domains shown, Heavy chain variable region of antibody 451M1; Light chain variable region of antibody 451M1) VH: EVQLLESGGGLVQPGGSLRLSCAASGFTFSDYDMSWVRQAPGKGLEWVSAIYYDSGSIYYADSAKGRFTISRDNSKNTLYLQMNSLRAEDTAVYYCAKDRLFMSDSTFDYWGQGTLVTVSS VL: QSVLTQPPSASGTPGQRVTISCSGSPSNIGNNSVTWYQQLPGTAPKLLIYYDSHRPSGVPDRFSGSKSGTSASLAISGLRSEDEADYYCGSWDASLNGYVFGGGTKLTVLG",1.24e+06 M⁻¹ s⁻¹,3.08e-05 s⁻¹
"451M2: modified anti-ErbB3 antibody from lead antibody 451P (CDR mutagenesis) (antibody, V domains shown, Heavy chain variable region of antibody 451M2; Light chain variable region of antibody 451M2) VH: EVQLLESGGGLVQPGGSLRLSCAASGFTFSDYDMSWVRQAPGKGLEWVSAIYYDSGSIYYADSAKGRFTISRDNSKNTLYLQMNSLRAEDTAVYYCAKDRLFASDSTFDYWGQGTLVTVSS VL: QSVLTQPPSASGTPGQRVTISCSGSPSNIGNNSVTWYQQLPGTAPKLLIYYDSHRPSGVPDRFSGSKSGTSASLAISGLRSEDEADYYCGSWDASLNGYVFGGGTKLTVLG",1.24e+06 M⁻¹ s⁻¹,1.56e-05 s⁻¹
"451M3: modified anti-ErbB3 antibody from lead antibody 451P (CDR mutagenesis) (antibody, V domains shown, Heavy chain variable region of antibody 451M3; Light chain variable region of antibody 451M3) VH: EVQLLESGGGLVQPGGSLRLSCAASGFTFSHYDMSWVRQAPGKGLEWVSAIYYDSGSIYYADSAKGRFTISRDNSKNTLYLQMNSLRAEDTAVYYCAKDRLFASDSTFDYWGQGTLVTVSS VL: QSVLTQPPSASGTPGQRVTISCSGSPSNIGNNSVTWYQQLPGTAPKLLIYYDSHRPSGVPDRFSGSKSGTSASLAISGLRSEDEADYYCGSWDASLNGYVFGGGTKLTVLG",1.87e+06 M⁻¹ s⁻¹,2.3e-07 s⁻¹
"451M4: modified anti-ErbB3 antibody from lead antibody 451P (CDR mutagenesis) (antibody, V domains shown, Heavy chain variable region of antibody 451M4; Light chain variable region of antibody 451M4) VH: EVQLLESGGGLVQPGGSLRLSCAASGFTFSYYDMSWVRQAPGKGLEWVSAIYYDSGSIYYADSAKGRFTISRDNSKNTLYLQMNSLRAEDTAVYYCAKDRLFASDSTFDYWGQGTLVTVSS VL: QSVLTQPPSASGTPGQRVTISCSGSPSNIGNNSVTWYQQLPGTAPKLLIYYDSHRPSGVPDRFSGSKSGTSASLAISGLRSEDEADYYCGSWDASLNGYVFGGGTKLTVLG",2.01e+06 M⁻¹ s⁻¹,1.23e-05 s⁻¹
"451M5: modified anti-ErbB3 antibody from lead antibody 451P (CDR mutagenesis) (antibody, V domains shown, Heavy chain variable region of antibody 451M5; Light chain variable region of antibody 451M5) VH: EVQLLESGGGLVQPGGSLRLSCAASGFTFSDYDMSWVRQAPGKGLEWVSAIYYDSGSIYYADSAKGRFTISRDNSKNTLYLQMNSLRAEDTAVYYCAKDRLFESDSTFDYWGQGTLVTVSS VL: QSVLTQPPSASGTPGQRVTISCSGSPSNIGNNSVTWYQQLPGTAPKLLIYYDSHRPSGVPDRFSGSKSGTSASLAISGLRSEDEADYYCGSWDASLNGYVFGGGTKLTVLG",1.52e+06 M⁻¹ s⁻¹,3.29e-05 s⁻¹
"451M6: modified anti-ErbB3 antibody from lead antibody 451P (CDR mutagenesis) (antibody, V domains shown, Heavy chain variable region of antibody 451M6; Light chain variable region of antibody 451M6) VH: EVQLLESGGGLVQPGGSLRLSCAASGFTFSHYDMSWVRQAPGKGLEWVSAIYYDSGSIYYADSAKGRFTISRDNSKNTLYLQMNSLRAEDTAVYYCAKDRLFESDSTFDYWGQGTLVTVSS VL: QSVLTQPPSASGTPGQRVTISCSGSPSNIGNNSVTWYQQLPGTAPKLLIYYDSHRPSGVPDRFSGSKSGTSASLAISGLRSEDEADYYCGSWDASLNGYVFGGGTKLTVLG",1.2e+06 M⁻¹ s⁻¹,4.17e-06 s⁻¹
"451M7: modified anti-ErbB3 antibody from lead antibody 451P (CDR mutagenesis) (antibody, V domains shown, Heavy chain variable region of antibody 451M7; Light chain variable region of antibody 451M7) VH: EVQLLESGGGLVQPGGSLRLSCAASGFTFSYYDMSWVRQAPGKGLEWVSAIYYDSGSIYYADSAKGRFTISRDNSKNTLYLQMNSLRAEDTAVYYCAKDRLFESDSTFDYWGQGTLVTVSS VL: QSVLTQPPSASGTPGQRVTISCSGSPSNIGNNSVTWYQQLPGTAPKLLIYYDSHRPSGVPDRFSGSKSGTSASLAISGLRSEDEADYYCGSWDASLNGYVFGGGTKLTVLG",1.35e+06 M⁻¹ s⁻¹,6.63e-06 s⁻¹
"442S6: modified anti-ErbB3 antibody from lead antibody 442P (CDR mutagenesis) (antibody, V domains shown, Heavy chain variable region of antibody 442S6; Light chain variable region of antibody 442S6) VH: EVQLLESGGGLVQPGGSLRLSCAASGFTFSDYDMSWVRQAPGKGLEWVSSIYPDSGSTDYADSVQGRFTISRDNSKNTLYLQMNSLRAEDTAVYYCAKDRHMWPEGPFDYWGQGTLVTVSS VL: QSVLTQPPSASGTPGQRVTISCSGSSSNIGSNSGSWYQQLPGTAPKLLIYADNWRPSGVPDRFSGSKSGTSASLAISGLRSEDEADYYCAAWDSSLSGYVFGGGTKLTVLG",872000 M⁻¹ s⁻¹,<1e-07 s⁻¹
